We go through 4 molecules from patent US20120207788A1 (BIOMAY, published 2012).

The labels stand for the following.
B1: hybrid molecule Q (other)
chain: MFRFLTEKGMKNVFDDVVPEKYTIGATYAPEEDEWVAMTKGEGGVWTFDSEEPLQGPFNADKYKTFEAAFTVSSKRNLADAVSKAPQLVPKLDEVYNAAYNAADHAAPEDKYEAFVLHFSEALRIIAGTPEVHAVKPGAVPKVTFTVEKGSNEKHLAVLVKYEGDTMAEVELREHGSHHHHHH
B2: hybrid molecule C (other)
chain: MGAASNKAFAEGLSGEPKGAAESSSKAALTSKLDAAYKLAYKTAEGATPEAKYDAYVATLSEALRIIAGTLEVHAVKPAADLGYGPATPAAPAAGYTPATPAAPAEAAPAGKATTEEQKLIEKINAGFKAALAAAAGVQPADKYRTFVATFSGRGCGSCFEIKCTKPEACSGEPVVVHITDDNEEPIAPYHFDLSGHAFGAMAKKGDEQKLRTGPFTVRYTTEGGTKTEAEDVIPEGWKADTSYESKHHHHHH
B3: hybrid molecule B (other)
chain: MAVKQAYAATVATAPEVKYTVFETALKKAITAMSEAQKAAKPAAAATATATAAVGAATGAATAATGGYKVAEEVKVIPAGELQVIEKVDAAFKVAATAANAAPANDKFTVFEAAFNDAIKASTGGAYESYKFIPALEAIPKVPPGPNITATYGDKWLDAKSTWYGKPTGAGPKDNGGACGYKDVDKPPFSGMTGCGNTPIFKSAGELELQFRRVKCKYPEGTKVTFHVEKGSNPNYLALLVKYVNGDGDVVAVDIKEKGKDKWIELKESWGAIWRIDTPDKLHHHHHH
B4: hybrid molecule P (other)
chain: MGAASNKAFAEGLSGEPKGAAESSSKAALTSKLDAAYKLAYKTAEGATPEAKYDAYVATLSEALRIIAGTLEVHAVKPAADLGYGPATPAAPAAGYTPATPAAPAEAAPAGKATTEEQKLIEKINAGFKAALAAAAGVQPADKYRTFVATFSGRGCGSCFEIKCTKPEACSGEPVVVHITDDNEEPIAPYHFDLSGHAFGAMAKKGDEQKLRTGPFTVRYTTEGGTKTEAEDVIPEGWKADTSYESKAEEVKVIPAGELQVIEKVDAAFKVAATAANAAPAAVKQAYAATVATAPEVKYTVFETALKKAITAMSEAQKAAKPAAAATATATAAVGAATGAATAATGGYKVNDKFTVFEAAFNDAIKASTGGAYESYKFIPALEAIPKVPPGPNITATYGDKWLDAKSTWYGKPTGASAGELELQFRRVKCKYPEGTKVTFHVEKGSNPNYLALLVKYVNGDGDVVAVDIKEKGKDKWIELKESWGAIWRIDTPDKLGPKDNGGACGYKDVDKPPFSGMTGCGNTPIFKHHHHHH

The assay addresses serum IgE from grass pollen allergic patients. Put plainly: cell-based or functional assay.
Take B1: the “CD203c expression on human basophils isolated from grass pollen allergic patients” value was 10 fold.
The value for B2 was 10 fold; that for B3 was 10 fold.
B4: the “CD203c expression on human basophils isolated from grass pollen allergic patients” value turned out to be 10 fold.
